Measured values: the supplement of paper PMC12636428

System: Saccharomyces cerevisiae
Experiment: transcriptional activation domain activity (GFP:mCherry ratio, weighted mean of sorted bins, harmonized to initial dataset scale) (arbitrary fluorescence ratio units); higher = stronger transcriptional activation
Conditions: beta-estradiol 1 µM; induction time 4 h
Procedure, shortened: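 In diploid yeast carrying a GFP reporter, barcoded protein tiles fused to an estradiol-inducible synthetic transcription factor were integrated at the URA3 locus. Cultures diluted 1:5 into SC with 1 uM beta-estradiol were kept at 30 °C for 4 hours, then sorted by GFP:mCherry ratio into 8 bins before barcode sequencing. Tiles with under 50 reads were excluded. The activation activity reported here is the read-weighted mean of bin median fluorescence, averaged across barcodes and linearly rescaled to the initial dataset.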

Sequence | transcriptional activation domain activity
KAAVPKTKAAPKAKAVKAPKEKKAAAPKAKAAAKPKAAPKAKKAAAPKAAPAV | 29000
IGLLLLSILVIYIFISFPHHTIESGHCTISFTSPIAIFYLLLLNFFLNTYLSF | 36300
VKWAKETRGEQRKRLHIVPVGIVYTNKSQYQSRVSSRVHICVHVEAFVQERTS | 52100
HLGFRYWLLSATEIVNTIFLPSVIAYLYTVYIRFLLTYWLSYAIIAGSFMILF | 53000
WLPFPESLGSSYRMPGIEPYVDFVMGRILAKKLPELLDSCQILMLRWKCLCFI | 63200
TGEKFGIKRKEQQKPEQTAEETVALAKNDTPSFASVFILAYGIHKTLLLPVRL | 41500
MSLFMLRTLPSFVCSSFCAMLHFCCSYSLLFYYWALSLPRWLPIPSGFIPIAF | 60200
MGVFILFAFLFFLMFVLLHFFLLLSFFLLSSLMGVYFFPHSMITYMFSFGLRS | 44100
SKWWLLGDSFEADILTFITLYQFVNAGFVFNYGYIFRKSWYRNYLLICIWALF | 67200
GGAARVDREEMPGVTLCLRHLSACVLGVFLVESSKKVLVVVRTEPITLSKSFG | 45200
SGDADEDGNGHGTHCSGTIAGKKYGVAKKAHVYAVKVLRSNGSGSMSDVVKGV | 9640
AEGADAEGEGEEGEKEQEQEKQDGEKDGSEKETGNGQDGKKSEASLSVLNRLL | 29400
EASSDGEGAASASDASGDRELVKAKAKKKKKAAGEEGDKPKKKKKSSPKKAKE | 27100
RMVYSIRLVFHLYAELLLDRAFFLEWFLSFFAECSLDVLPLAFPIATALWDDL | 64600
MWVGELLGYYCTMALSKALGCKVRLLRAWAEMHNICGFYSRDSIPCRMYASRV | 61800
IGETDAKAKKEKKEKKGKKAQEGAVVAETVDGGEEKKKKKKSKAKGETTADSM | 35100
CKAHCGYILGHINIFQPINWIFVISSKVFPIDYVLYLLLILFFFSASVVGIAT | 51900
LISRLFAVKEVTKIQDINLEFDIACLWPLVPLSSWVMDYIVTVMQAWSLLFNR | 59400
KLAKKEPAAAKPKSEKPKAEKKTTEKKPVAKKATTTKKPAAAKPKAAPKPKTA | 27000
QRGKPYDLHSSDGSSEKKRTEKVGLSAGKQHMWILLRPKAAMWAVCVVLASPE | 38700
TTLVNTTAPYFPYSFSALEGSTFNGFSFDQTMFDLFLEVWEQTDPLMNYLFDF | 162000

Sequence | transcriptional activation domain activity
RSKAKDDDRSSDESDSKSSKSNKSKRSKHNNDSDSENGSSDEDRGSKRRKKSK | 23000
VVPCLALVKKKSFFFVFFLLFLFLCTHLTACIAFSPFLFLFLFVFLFVALFSV | 40400
PLEKLMCLRTSLSLLSAAADKYMQENRLTVFHTSVASDDLILLLACALTQTHL | 50200
GLNPLRTTLMMSLNIIRSLFPAFRGYSQALIVDELQSLIASESFTWSRLLWLM | 57900
EELWTDVDLYNAQFFFIKLLLHFNDPIYGPNTHELLIVMLGQKGGLYPLWQLL | 59700
TWKVIGLVWRCPELTEYLNKVILTIIIIRSESHFDSSIAALNESCLTPYGTVD | 28800
GVLALSPCDDTTLKATMGVIEELLIYLYFAGQMRELFYWACRVVNLSVHHGHA | 69100
KGKGKGKEGKGKGRREGEGGRGTEGREMGEKEREEEREEEREGKEGRREGGKE | 24100
NLPSLIGIQLLSSMGEYVMLWLIFVGTVIYYAGWVTLVIDGFCRFLNIRCLVI | 56900
MISLFFFLFLYHIYVFLLLLLLYFLPSLPYPPIYTLYIVSLIIPHLVYLLQNS | 31400
PFSHFVRMLLIYLPSLRLIVYYAFSFTLIMPFVLGYSVFMPSNWDTATFFFSY | 61900
FLNNAPDEDPNLNNQWSICDDFSEGRQVNDAFVGGSNIPHTLKGLQKSLRFMN | 50800
RNILLFTMVADGESSLVIWSIFYHFFLDDNSLGLLLAQCRKLVQISNDMQTWM | 58900
TSQCSISLYHYLIMYHMTLLGVATSVLALVLVCNPAEFLISSSVRLGFIWFCI | 73700
IQAEGLYQCRYRSYGIECIRYIFFFAMFGFLLKSEWYLSSAFFLGCLWHQLAF | 25300
NNGKGQGKRRASSSALAAEKMVEKEAWLRSPKAVCTLSIAVMRSALHLMNAHL | 67700
SNHNNDNDNSNNGDGNNNNTISELVCFDESIADLYPVEIDSPYLITLAYLDKL | 71900
DRDRSRSRSRSRSKSPRRHRRSSRSPRRRGADKSPERAAPAASSKQAEARPRC | 31100
HLKHTFVMDVAMSIGYLMAPVLVSACAFIWYVKVDNHELSASVVFVSITLFDM | 61800
GLAELAAALDDSDVQYAYARVEYANDAESKRVKFVLIVWIGSGTKVMRKGRAG | 42200
DFWFFLFVYYGFYNLVGLLWITKVFNMYGLNWWPVRLGFPATFTLFNCLSLAC | 65500

Sequence | transcriptional activation domain activity
CLLICIEYLTLSSLLDINVLLTTIVLHSLSLSSNLEVVRVVRRFFWVRCINLL | 47200
MRLHCFFLFVFFFSLFSFLLATLCHSPLPLPFVHVSFFPPSLLPLPIFALDPF | 33100
KKSVLQLLAWLMHYKLYPTRNYKAICNCLPKLFENPLWAEFCSKMADTMVKYN | 46300
TPFALFSSCYALNATVDQDYPLLFRRCVLGDTLWVLAILLCILWSLLVCFAFW | 31300
GDEKLAKGRGDEKPAKGKGKEKKAKAKGKKAKGEKKAEDKENAVKESLENAVK | 32800
SLVLPCLSSYHYRFIDDYHVLHAQVKLMQGVLWWSMVQNITVYLLFLLLFLFA | 25200
CFICYGYIVIRWWIEADRDPELIHQALVMIWYPIAYFVEIFPQSMVRVLNMHA | 52600
GKADKKETANGKSTDSKTAGGNANSTARKRKTSNASVQDQKAAKATTTAASRK | 27600
YSLNIFIFGNGRYGSTIQANLHGLRSFIRLVPKDCLALIRHLHLHIFFSGLPD | 54800
KADDEKPKKAARGAKAKKEEDEDEEADEEQEEPKKPARKPRAKAEPKKAPAKS | 23100
MLAYTHFLIMLDRDILNICCVIYFYCLVFICLLLTFLLLIAPLNTCVGLCWKG | 54400
RLILILSLLVCWAAAIIDCVFVIIAGVTGVLQPQSRYLVLLLPMLFTNFLATL | 57300
RKDALLKTSFGGTVFAVRQIGGDRFHGMPFVHLMVIVICLHWTWLRAVIFLGR | 52800
FPTVLVYYLLFAIGRLCTIMLYAALETCLAFMNHFPLFAMMLRLKDPARLPGG | 61800
MVPFSAFSFSLVKKFHWSAAFGGSFFLHLFFTNLNAWVFLFYLLLYVFVYQGL | 40600
KQTRAGQRTRFRAVVIVGDSNGHVGLGVKTSKEVATAIRAAIVIAKLNVIPVR | 64200
STSIRWEIFYARFFIMMLFYTIVGLFLTIACFSLRYHLFIWTVFSPKLLFFFV | 48800
IHQASIAHHPAQHPQRKAHQHSRGGARPQHESQEATRRLGPRHPAHVAALHRR | 30500
LANGLVVVLHTEAYDLPDNFASNCWFVIYYTNNSYLRFSSIYRYIFSIVIIVL | 45800
